In patent US12371456B2, “Proteins for the treatment of epithelial barrier function disorders” (Genevive, Inc., priority 2017, dated 2025):

Legend:
[1] = system: DSS model of inflammatory bowel disease; test: DSS model: gross pathology score; type: in vivo, C57BL/6 mice; details: FIG. 9
Protocol: Eight-week old C57BL/6 mice were housed 5 animals were cage and given food and water ad libitum for 7 days. Following the 7-day acclimation period, treatments were initiated concurrently with addition of 2.5% DSS to the drinking water. […] The mice were treated with 2.5% dextran sodium sulfate (DSS) in their drinking water for 6 days. Treatments were continued with SG-14 or […]-GLP2 twice a day (b.i.d.) in the morning and evening (every 8 and 16 hr) with i.p. injections at 50 nmoles/kg. Fresh 2.5% DSS drinking water was prepared every 2 days. Gross pathology observations were made in mice included in the concurrent DSS model performed in this Example. […] The scoring system used was: (0)=no gross pathology, (1)=streaks of blood visible in feces, (2)=completely bloody fecal pellets, (3) bloody fecal material visible in cecum, (4) bloody fecal material in cecum and loose stool, (5)=rectal bleeding. The graph in FIG. 9 represents data pooled from the single experiment (n=10).

[2] = system: DSS model of inflammatory bowel disease; test: DSS model: colonic tissue histopathology score; type: in vivo, C57BL/6 mice; details: FIG. 12A
Protocol: (§1) Eight-week old C57BL/6 mice were housed 5 animals were cage and given food and water ad libitum for 7 days. Following the 7-day acclimation period, treatments were initiated concurrently with addition of 2.5% DSS to the drinking water. […] The mice were treated with 2.5% dextran sodium sulfate (DSS) in their drinking water for 6 days. Treatments were continued with SG-14 or Gly2-GLP2 twice a day (b.i.d.) in the morning and evening (every 8 and 16 hr) with i.p. injections at 50 nmoles/kg. Fresh 2.5% DSS drinking water was prepared every 2 days.
Colon tissue was collected from mice in the DSS model described in this Example 7. Tissues were fixed in 10% formalin, processed for paraffin embedding and sectioned. Tissue sections were stained with Hematoxylin and Eosin and scored for pathology by a pathologist specializing in gastrointestinal disease. The scoring system used multiple pathology readouts including inflammation, edema, transmural inflammation, mucosal hyperplasia, dysplasia, loss of mucosal architecture, the extent of tissue affected, and the extent of tissue affected by the most severe pathology. Each readout was scored on a scale of 0-4 and a total score was generated by totaling all readout values for each treatment. […] The graph in FIG. 12A and images in […] represent data from the single experiment (n=10).

[3] = system: LPS binding protein (LBP); test: DSS model: LPS binding protein (LBP) in serum by ELISA; type: in vivo, C57BL/6 mice; details: 50 nmoles/kg i.p. b.i.d., 2.5% DSS; FIG. 7
Protocol: as §1
SG-14 was also assessed for its effects on the levels of LPS binding protein (LBP) in the blood of the DSS animal with and without SG-14 administration. LPS binding protein (LBP), which has been linked to clinical disease activity in subjects with inflammatory bowel disease, was also measured by ELISA in the serum of mice tested in the DSS model described in Example 7. […] Results are shown in FIG. 7, and are presented as mean f SEM. The graph in FIG. 7 represents data pooled from the single experiment (n=10).

[4] = system: muc2; test: muc2 gene expression in epithelial cell monolayer (qRT-PCR); type: cell-based, human; details: SG-14 1 pg/ml (40 nM) 6 hours prior to HK E. coli for 24 hours; p=0.87; FIG. 4
Protocol: Gene expression was measured in the epithelial cell monolayer from the apical chamber of the co-culture TEER assay described in Example 2. Total RNA was isolated from the epithelial cell monolayer, cDNA was synthesized. qRT-PCR was performed on cDNA generated from the HCT8 & HT29-MTX cells treated with SG-14 ([…]; 40 nM) for 6 hours prior to addition of HK E. coli for 24 hours. muc2 gene expression is graphed as mean fold change ±SEM. Statistical analysis was performed by a one-way ANOVA compared to HK E. coli and a Fishers LSD test was used for multiple comparisons.

[5] = system: HCT8 enterocyte and HT29-MTX goblet cell lines; test: Oris Cell Migration assay (epithelial cell wound healing); type: cell-based, human; details: 48 hours; SG-14 1 μg/ml, EGF 30 ng/ml, staurosporine 100 nM; FIG. 5
From the text: The 96 well Oris Cell Migration assay containing plugs preventing cell attachment in the center of each well was used according to the manufacturer's instructions (Platypus Technologies, Madison, WI). The migration assay plates were warmed to room temperature prior to use and plugs were removed from 100% confluence wells prior to cell addition. The HCT8 enterocyte and HT29-MTX goblet cell lines were used at a 9:1 ratio with a total of 5×10^4 total cells added per well (4.5×10^4 HCT8 cells and 0.5×10^4 HT29-MTX cells). Cells were incubated at 37° C.+5% CO2 for 24 hours. Plugs were then removed from all control and sample wells. Control wells included cells treated with the diluent vehicle as the blank, 30 ng/ml epidermal growth factor (EGF) as the positive control, and 100 nM staurosporine as the negative control, all diluted in cRPMI. Sample wells contained SG-14 protein at a concentration of 1 μg/ml diluted in cRPMI. 100% and 0% wells were cultured in cRPMI. […] The green fluorescent viability dye […] was added to all wells at a concentration of […] in PBS containing 0.9 mM CaCl2) and 0.5 mM MgCl2, incubated for 30 min at 37° C.+5% CO2, the dye was removed and cells were washed in PBS containing 0.9 mM CaCl2) and 0.5 mM MgCl2 and fluorescence was measured. […] Samples were normalized between 100% and 0% samples and values expressed as a percent growth.

B1: SG-14: Eubacterium eligens protein comprising SEQ ID NO:3; tested form expressed in E. coli, with exogenous GPLG at N-terminus and PHRD at C-terminus (protein)
chain: GCARNSTSTTTASGGETTITSAITKEDTDVTHADDAENYRVSITGDFTVTSDTSDGVTQSGSVYTITKAGEYTVTGLLSEGQLIVDAGNENEVTIVLNGTSITCSSGSPIYVKNASEVKIKSEENSFNEVIDNRNEATEDSSDDAGNAAIYATCDLKLVGKGALVVTGNYNNGIQSKDDLSIKNVIVKVTAVNNAVKVNDAVDIESGNIIAISAKGDGIKTSNSSISNKGNQKGIVTITSGNIDIYAACDGIDASYGADISGDGNLNIYTDTYSEYSEEVTSSGSSSGTSSGRDSSANKSASANTVSYVATSDTIANAPSGFGGGNMGSGNAPDMSNGNAPNMNGSSDRNKTGGNRPGMPGDFNESGNSSGQSYSTKGIKAESEINISGFTINICSTDDGIHANSDSGVLETGEDGKGTIVINGGSITISSGDDGMHADKQLDVNDGYINVVTSYEGLEAMTINLNGGKIYVYATDDGINACTGDGKTSPIVNVTGGYIDVTTTSGDTDGIDSNGNYVQTGGFVLVKGGSSSGNVSGSIDVDGTVTITGGTCVALGGVCETPVNSANAYVLGSVSFSSGSYSLKDSSGNEVISFTVDGSFSNGWICSDTLTTGSSYTLYRGADSIADWTQE
modifications: N-terminal GPLG and C-terminal PHRD
[1]; 50 nmoles/kg i.p. b.i.d., 2.5% DSS
  Gross pathology score (0-5) vs vehicle treated DSS mice: significantly improved gross pathology
[1]
  Clinical scores vs DSS mice treated with Gly2-GLP2: No differences
[2]
  Colon pathology scores vs positive control Gly2-GLP2: further reduced colon pathology scores significantly
[2]; H&E sections, readouts scored 0-4
  Colonic pathology (total histopathology score) vs DSS: significantly reduced colonic pathology
[3]
  Serum LBP concentration vs DSS mice treated with vehicle: significant reduction
  Serum LBP concentration vs control peptide Gly2-GLP2: greater impact on LBP concentration
[4]
  muc2 gene expression vs HK E. coli without pre-treatment: slight inhibition
[5]
  Wound healing (percent growth): significant increase in growth
